Results reported in patent US20220267441A1 (VOR BIOPHARMA, published 2022).
Read-outs that look alike come from different tables or passages of the source.

T1: cynomolgus CD45 on live cells (primary cynomolgus PBMCs) (cynomolgus monkey)
T1 construct: Endogenous CD45 on PBMCs; also called cyno CD45; Cyno PBMC
T1 chain: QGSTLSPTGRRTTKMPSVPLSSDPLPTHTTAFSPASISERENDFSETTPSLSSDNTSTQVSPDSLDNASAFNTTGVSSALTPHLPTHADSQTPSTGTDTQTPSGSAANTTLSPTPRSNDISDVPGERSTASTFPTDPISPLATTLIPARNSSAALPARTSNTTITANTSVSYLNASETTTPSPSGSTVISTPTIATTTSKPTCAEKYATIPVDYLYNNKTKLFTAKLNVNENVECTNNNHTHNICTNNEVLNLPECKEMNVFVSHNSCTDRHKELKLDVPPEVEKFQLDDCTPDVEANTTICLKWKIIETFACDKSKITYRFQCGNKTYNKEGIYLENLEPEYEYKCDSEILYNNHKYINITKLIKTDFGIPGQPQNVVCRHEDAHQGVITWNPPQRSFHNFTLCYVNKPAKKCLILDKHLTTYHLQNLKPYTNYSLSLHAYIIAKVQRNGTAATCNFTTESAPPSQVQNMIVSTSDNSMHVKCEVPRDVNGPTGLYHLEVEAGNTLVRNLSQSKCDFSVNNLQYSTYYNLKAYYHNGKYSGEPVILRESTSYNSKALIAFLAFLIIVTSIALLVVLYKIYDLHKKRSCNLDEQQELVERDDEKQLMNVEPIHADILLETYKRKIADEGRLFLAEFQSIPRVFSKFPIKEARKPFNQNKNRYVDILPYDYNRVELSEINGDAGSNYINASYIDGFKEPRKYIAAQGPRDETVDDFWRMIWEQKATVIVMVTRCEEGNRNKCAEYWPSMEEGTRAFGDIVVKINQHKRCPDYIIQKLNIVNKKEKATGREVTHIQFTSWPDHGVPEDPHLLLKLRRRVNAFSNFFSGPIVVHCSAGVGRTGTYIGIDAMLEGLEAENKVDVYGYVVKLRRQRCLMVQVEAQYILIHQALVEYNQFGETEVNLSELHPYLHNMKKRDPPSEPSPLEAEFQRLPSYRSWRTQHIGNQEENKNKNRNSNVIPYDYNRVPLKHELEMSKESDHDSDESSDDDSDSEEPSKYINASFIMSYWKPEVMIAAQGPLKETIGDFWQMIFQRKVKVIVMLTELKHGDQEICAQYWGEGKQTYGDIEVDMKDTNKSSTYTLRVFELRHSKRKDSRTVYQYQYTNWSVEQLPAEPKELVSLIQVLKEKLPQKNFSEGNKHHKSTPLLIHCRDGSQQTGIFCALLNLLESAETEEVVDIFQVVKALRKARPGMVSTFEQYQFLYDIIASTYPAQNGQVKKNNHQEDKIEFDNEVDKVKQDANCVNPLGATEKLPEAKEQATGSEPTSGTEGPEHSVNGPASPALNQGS

T2: human CD45 on live cells (REH-1 cells, primary human PBMCs) (human, UniProt P08575 26-1306)
T2 construct: Endogenous CD45
T2 sequence: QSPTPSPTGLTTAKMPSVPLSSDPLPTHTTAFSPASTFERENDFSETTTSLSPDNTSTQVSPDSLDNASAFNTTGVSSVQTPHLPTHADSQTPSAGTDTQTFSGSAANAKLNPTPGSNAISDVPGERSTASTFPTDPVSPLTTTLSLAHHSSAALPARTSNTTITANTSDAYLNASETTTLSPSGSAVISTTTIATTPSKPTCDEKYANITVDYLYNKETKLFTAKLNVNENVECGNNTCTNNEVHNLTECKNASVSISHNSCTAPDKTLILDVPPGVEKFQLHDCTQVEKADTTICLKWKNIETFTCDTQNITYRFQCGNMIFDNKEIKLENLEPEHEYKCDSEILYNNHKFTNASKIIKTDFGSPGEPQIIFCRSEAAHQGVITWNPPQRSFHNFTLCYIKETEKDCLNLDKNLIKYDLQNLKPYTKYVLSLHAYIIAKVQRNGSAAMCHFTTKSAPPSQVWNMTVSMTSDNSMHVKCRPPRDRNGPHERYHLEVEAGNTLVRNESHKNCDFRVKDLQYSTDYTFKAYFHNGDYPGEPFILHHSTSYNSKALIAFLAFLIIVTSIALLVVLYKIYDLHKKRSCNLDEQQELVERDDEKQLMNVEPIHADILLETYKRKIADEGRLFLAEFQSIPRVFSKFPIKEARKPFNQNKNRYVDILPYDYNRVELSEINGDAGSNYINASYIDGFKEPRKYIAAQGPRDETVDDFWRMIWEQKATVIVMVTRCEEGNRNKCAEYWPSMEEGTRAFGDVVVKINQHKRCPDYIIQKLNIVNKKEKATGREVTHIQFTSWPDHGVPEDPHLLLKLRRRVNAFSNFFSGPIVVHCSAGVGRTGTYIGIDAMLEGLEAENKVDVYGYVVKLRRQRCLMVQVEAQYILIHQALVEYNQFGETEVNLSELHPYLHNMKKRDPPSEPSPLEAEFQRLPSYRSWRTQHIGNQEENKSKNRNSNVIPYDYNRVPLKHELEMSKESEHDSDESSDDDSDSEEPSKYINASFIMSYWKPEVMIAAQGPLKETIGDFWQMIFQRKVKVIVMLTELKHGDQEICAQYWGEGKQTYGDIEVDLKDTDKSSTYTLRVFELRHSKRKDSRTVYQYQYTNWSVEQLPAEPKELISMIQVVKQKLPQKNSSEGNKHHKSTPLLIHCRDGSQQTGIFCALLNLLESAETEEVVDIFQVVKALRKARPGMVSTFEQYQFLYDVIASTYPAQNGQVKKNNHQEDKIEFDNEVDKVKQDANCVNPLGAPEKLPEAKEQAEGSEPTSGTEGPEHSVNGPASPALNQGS

T3: purified human CD45 ectodomain (human CD45RABC antigen) (human, UniProt P08575 26-577)
T3 construct: also called hCD45
T3 sequence: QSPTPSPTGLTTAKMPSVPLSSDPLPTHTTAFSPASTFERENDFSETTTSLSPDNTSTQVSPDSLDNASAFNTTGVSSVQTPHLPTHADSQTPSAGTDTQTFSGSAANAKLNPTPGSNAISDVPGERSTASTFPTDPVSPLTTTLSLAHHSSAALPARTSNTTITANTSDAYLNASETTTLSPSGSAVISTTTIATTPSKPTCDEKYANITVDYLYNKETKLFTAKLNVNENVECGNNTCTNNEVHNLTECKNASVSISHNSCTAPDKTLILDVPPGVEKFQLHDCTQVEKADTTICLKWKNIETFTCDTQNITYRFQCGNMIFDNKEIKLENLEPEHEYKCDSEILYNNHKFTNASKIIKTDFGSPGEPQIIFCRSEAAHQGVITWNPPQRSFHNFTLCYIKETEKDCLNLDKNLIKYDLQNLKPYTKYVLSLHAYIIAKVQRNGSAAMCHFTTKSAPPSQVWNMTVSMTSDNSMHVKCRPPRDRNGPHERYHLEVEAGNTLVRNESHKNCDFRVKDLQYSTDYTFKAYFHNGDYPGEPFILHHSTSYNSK


Experiments:
[1] = biological target: T1, cynomolgus CD45 on live cells (primary …); experiment: flow cytometry on PBMCs; cyno EC50 against human EC50
Procedure: (§1) To this end, primary human or cynomolgus (cyno) peripheral blood mononuclear cells (PBMCs) in cell culture media were incubated with titrated doses of the anti-CD45 antibodies overnight at 37° C. […] Bound anti-CD45 antibody was detected with fluorescently labeled AF488 anti-human IgG secondary antibody using flow cytometry. IC50s were determined by fitting the data using [sequence] […] An Isotype IgG was used as a control.

[2] = biological target: T2, human CD45 on live cells (REH-1 cells, …); experiment: flow cytometry on human PBMCs, overnight 37 C, AF488 anti-human IgG
Procedure: (§2) To this end, primary human or cynomolgus (cyno) peripheral blood mononuclear cells (PBMCs) in cell culture media were incubated with titrated doses of the anti-CD45 antibodies overnight at 37° C. […] Bound anti-CD45 antibody was detected with fluorescently labeled AF488 anti-human IgG secondary antibody using flow cytometry. IC50s were determined by fitting the data using [sequence] PRISM. An Isotype IgG was used as a control.

[3] = biological target: T1, cynomolgus CD45 on live cells (primary …); experiment: flow cytometry on cynomolgus PBMCs, overnight 37 C, AF488 anti-human IgG
Procedure: as §2

[4] = biological target: T1, cynomolgus CD45 on live cells (primary …); experiment: flow cytometry on PBMCs; cyno EC50 against human EC50
Procedure: as §2

[5] = biological target: T1, cynomolgus CD45 on live cells (primary …); experiment: flow cytometry on cynomolgus PBMCs, overnight 37 C, AF488 anti-human IgG
Procedure: as §1

[6] = biological target: T2, human CD45 on live cells (REH-1 cells, …); experiment: flow cytometry on human PBMCs, overnight 37 C, AF488 anti-human IgG; remark: listed apart in the source
Procedure: as §1

[7] = biological target: T3, purified human CD45 ectodomain (human …); experiment: BLI (Octet Red96), antibody on anti-human Fc sensor, 100 nM human CD45 ectodomain, 1:1 fit
Procedure: (§3) Briefly, antibody binding studies were performed at 25° C. in 1× PBS supplemented with 0.1% w/v bovine serum albumin with a PALL FORTEBIO OCTET RED96 using biolayer interferometry (BLI).
(§4) The apparent monovalent affinity (KD), apparent association rate (KON), and apparent dissociation rate (KDIS or KOFF) were determined by local full fitting with a 1:1 binding model as calculated by FORTEBIO data analysis software version 10.

[8] = biological target: T3, purified human CD45 ectodomain (human …); experiment: BLI (Octet Red96), Table 11; the sentence does not name the species of CD45
Procedure: as §3, §4

[9] = biological target: T2, human CD45 on live cells (REH-1 cells, …); experiment: flow cytometry on human PBMCs, overnight 37 C, AF488 anti-human IgG; remark: listed apart in the source
Procedure: (§5) Bound anti-CD45 antibody was detected with fluorescently labeled AF488 anti-human IgG secondary antibody using flow cytometry. IC50s were determined by fitting the data using GraphPad Prism.

[10] = biological target: T2, human CD45 on live cells (REH-1 cells, …); experiment: flow cytometry on REH-1 cells, overnight 37 C, AF488 anti-human IgG
Procedure: as §5

[11] = biological target: T1, cynomolgus CD45 on live cells (primary …); experiment: flow cytometry on cynomolgus PBMCs, overnight 37 C, AF488 anti-human IgG
Procedure: as §5

Binder	Fold Cyno vs Human (EC50) [1]	EC50 [2]	EC50 [3]	Fold Cyno v/s Human (EC50) [4]	EC50 [5]	EC50 [6]	Kd [7]	koff [7]	kon [7]	fold improved affinity over the parent clone C [8]	EC50 [9]	EC50 [10]	EC50 [11]
Antibody C (AbC) (antibody, IgG1, V domains shown, also called humanized clone AbC) VH: EVQLVESGGGLVQPGGSLRLSCAASGFTFNNYWMTWVRQAPGKGLEWVSSISSSGGSIYYPDSVKDRFTISRDNAKNSLYLQMNSLRAEDMAVYYCARLYYYDGGGDAWGQGTLVTVSS VL: GIQMTQSPSSLSASVGDRVTITCKASQDINKYLDWYQQKPGKAPKLLIYNTNNLHTGIPSRFSGSGSGTDYTLTISSLQPEDFATYYCLQHISRWTFGGGTKVEIK	1.7 fold	0.64 nM	1.34 nM	2.1 fold	0.88 nM	0.51 nM	2.93 nM	0.000149 s⁻¹	50800 M⁻¹ s⁻¹	> 4 fold	–	–	–
Ab7 (D265C LALA H435A) (antibody, human IgG1, kappa, L234A L235A, V domains shown) VH: QVQLVESGGGLVKPGGSLRLSCAASGFTFGGYSMNWVRQAPGKGLEWVSYISISGATITYADSVKGRFTISRDNAKNSLYLQMNSLRAEDTAVYYCARGGQYYYDSSDYGEVAFDIWGQGTMVTVSS VL: DIVMTQSPLSLPVTPGEPASISCRSSQSLVSSGYNYLDWYLQKPGQSPQLLIYFGSSRASGVPDRFSGSGSGTDFTLKISRVEAEDVGVYYCMQRRRTPPFTFGGGTKVEIKR	–	–	–	–	–	–	–	–	–	–	1 nM	0.2 nM	1.3 nM
